Results on 1 molecule are retold here after article PMC4319926, “Deciphering the Stepwise Binding Mode of HRG1β to HER3 by Surface Plasmon Resonance and Interaction Map” (PLoS ONE, 2015).

One may read the koff as the first-order rate constant of dissociation. In general, kon refers to a measure of how fast the partners come together. As usually defined, the stoichiometry N is the number of molecules, sites or subunits per partner or assembly.

Common to all, as to details: both partners purified
One assay has as its target T1, HER3-Avi-biotin (human, UniProt P21860 20-643, single biotin on the C-terminal Avi-Tag).
T1 construct: HER3 (ErbB3) extracellular domain with C-terminal Avi-Tag, singly biotinylated, MW 70 kDa; Printed MW 70 kDa; It was captured through streptavidin on a Biotin CAPture chip; also called bi-ECD3; biotinylated HER3-Avi; source: gift of pRED, Roche Diagnostics GmbH (Dr. Jürgen Schanzer); not shown: Avi-Tag, C-terminal, kept
Put plainly: SPR; assay D: Biacore T200, 25°C; HER3-Avi-biotin captured via streptavidin on CAP chip, no mAb208; HRG1β injected at 105-1.3 nM, 60 µl/min, 5 min association, 10 min dissociation; same sample buffer; evaluated by 1:1 Langmuir fit, two-state reaction model and Interaction Map.

The target of assay [1] is T2, human HER3 extracellular domain (human, UniProt P21860 20-643).
T2 construct: HER3 (ErbB3) receptor extracellular domain, human, MW 68 kDa; Printed MW 68 kDa; also called ECD3; HER3-ECD; source: from Dr. Birgit Bossenmaier, Roche Diagnostics GmbH, Penzberg
Put plainly: SPR; assay C: Biacore T200, 25°C; HER3 bound to mAb208 captured by immobilised rabbit anti-mouse antibody on CM5; HRG1β injected at 105-1.3 nM, 60 µl/min, 5 min association, 10 min dissociation; 10 mM HEPES pH 7.4, 150 mM NaCl, 1 mM EDTA, Tween 20, 1 mg/ml carboxymethyldextran; evaluated by 1:1 Langmuir fit (apparent), two-state reaction model and Interaction Map. In general terms: SPR reads the build-up and loss of mass on a sensor chip optically.

The target in assay [2] is T2, human HER3 extracellular domain. The assay is described as above. This is another data set of the same source.

T1 sequence (P21860 20-643): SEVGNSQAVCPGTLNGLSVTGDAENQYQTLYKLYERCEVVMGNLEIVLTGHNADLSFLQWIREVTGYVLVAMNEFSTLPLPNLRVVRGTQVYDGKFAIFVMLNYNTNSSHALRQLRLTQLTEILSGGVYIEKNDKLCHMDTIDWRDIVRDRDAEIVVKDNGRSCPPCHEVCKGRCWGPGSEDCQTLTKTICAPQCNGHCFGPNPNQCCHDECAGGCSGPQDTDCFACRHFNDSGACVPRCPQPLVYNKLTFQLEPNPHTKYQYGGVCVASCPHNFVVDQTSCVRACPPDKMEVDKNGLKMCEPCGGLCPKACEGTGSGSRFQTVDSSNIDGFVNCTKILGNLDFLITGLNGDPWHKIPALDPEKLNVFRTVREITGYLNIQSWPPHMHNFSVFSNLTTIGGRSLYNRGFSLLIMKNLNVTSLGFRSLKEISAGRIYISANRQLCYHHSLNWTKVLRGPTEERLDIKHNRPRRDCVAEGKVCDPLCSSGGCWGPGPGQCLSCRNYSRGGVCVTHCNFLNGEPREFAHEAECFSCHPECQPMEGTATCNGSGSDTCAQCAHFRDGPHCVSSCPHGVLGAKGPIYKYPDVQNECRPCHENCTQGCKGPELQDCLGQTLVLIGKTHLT
T2 sequence (P21860 20-643): as above

B1: human heregulin β1 (ligand, UniProt Q02297-6 20-246, looked up)
chain: SGKKPESAAGSQSPALPPRLKEMKSQESAAGSKLVLRCETSSEYSSLRFKWFKNGNELNRKNKPQNIKIQKKPGKSELRINKASLADSGEYMCKVISKLGNDSASANITIVESNEIITGMPASTEGAYVSSESPIRISVSTEGANTSSSTSTSTTGTSHLVKCAEKEKTFCVNGGECFMVKDLSNPSRYLCKCPNEFTGDRCQNYVMASFYKHLGIEFMEAEELYQK
notes: heregulin β1 (neuregulin-1, beta 1 isoform), human, MW 25 kDa; The printed MW of 25 kDa is larger than an EGF-like domain alone; also called HRG1β; Heregulin 1 beta; source: from Dr. Birgit Bossenmaier, Roche Diagnostics GmbH, Penzberg
B1: in the assay with HER3-Avi-biotin, the Kd amounted to 0.38 nM, the koff was 0.0046 s⁻¹, the kon was 1.2e+07 M⁻¹ s⁻¹ and the “stoichiometry N” value came to 0.84. Moreover, the “stoichiometry N” value in assay [1] came to 0.5. Besides, in assay [2], the Kd was 0.33 nM, the koff amounted to 0.04 s⁻¹, the kon came to 1.2e+08 M⁻¹ s⁻¹ and the “stoichiometry N” value was 0.56.
